Consider 15 molecules from patent US20110014193A1 (JURIDICAL FDN THE CHEMO SERO THERAPEUTIC RES INST, published 2011).

Common to all, as to test: cell-based or functional assay
For experiment [1], the target named is T1, human α9 integrin molecule (human, UniProt Q13797 30-1035; P05556 21-798).
Experiment [2] deals with T1, human α9 integrin molecule. The source holds these as a separate data set.
In experiment [3] the target is T1, human α9 integrin molecule. The source holds these as a separate data set.
The target in experiment [4] is T1, human α9 integrin molecule. The source holds these as a separate data set.
In experiment [5] the target is T1, human α9 integrin molecule. The source holds these as a separate data set.
The target in experiment [6] is T1, human α9 integrin molecule. This is another data set of the same source.
Experiment [7] concerns the target T1, human α9 integrin molecule. The source holds these as a separate data set.
Experiment [8] has as its target T1, human α9 integrin molecule. The source holds these as a separate data set.
Experiment [9] deals with T1, human α9 integrin molecule. The source holds these as a separate data set.

Substitutions are numbered along the chain they refer to. Numbers in names are those of the source. Read-outs that look alike come from different tables or passages of the source.

T1 sequence (Q13797 30-1035 limits assumed, chain 1 of 2): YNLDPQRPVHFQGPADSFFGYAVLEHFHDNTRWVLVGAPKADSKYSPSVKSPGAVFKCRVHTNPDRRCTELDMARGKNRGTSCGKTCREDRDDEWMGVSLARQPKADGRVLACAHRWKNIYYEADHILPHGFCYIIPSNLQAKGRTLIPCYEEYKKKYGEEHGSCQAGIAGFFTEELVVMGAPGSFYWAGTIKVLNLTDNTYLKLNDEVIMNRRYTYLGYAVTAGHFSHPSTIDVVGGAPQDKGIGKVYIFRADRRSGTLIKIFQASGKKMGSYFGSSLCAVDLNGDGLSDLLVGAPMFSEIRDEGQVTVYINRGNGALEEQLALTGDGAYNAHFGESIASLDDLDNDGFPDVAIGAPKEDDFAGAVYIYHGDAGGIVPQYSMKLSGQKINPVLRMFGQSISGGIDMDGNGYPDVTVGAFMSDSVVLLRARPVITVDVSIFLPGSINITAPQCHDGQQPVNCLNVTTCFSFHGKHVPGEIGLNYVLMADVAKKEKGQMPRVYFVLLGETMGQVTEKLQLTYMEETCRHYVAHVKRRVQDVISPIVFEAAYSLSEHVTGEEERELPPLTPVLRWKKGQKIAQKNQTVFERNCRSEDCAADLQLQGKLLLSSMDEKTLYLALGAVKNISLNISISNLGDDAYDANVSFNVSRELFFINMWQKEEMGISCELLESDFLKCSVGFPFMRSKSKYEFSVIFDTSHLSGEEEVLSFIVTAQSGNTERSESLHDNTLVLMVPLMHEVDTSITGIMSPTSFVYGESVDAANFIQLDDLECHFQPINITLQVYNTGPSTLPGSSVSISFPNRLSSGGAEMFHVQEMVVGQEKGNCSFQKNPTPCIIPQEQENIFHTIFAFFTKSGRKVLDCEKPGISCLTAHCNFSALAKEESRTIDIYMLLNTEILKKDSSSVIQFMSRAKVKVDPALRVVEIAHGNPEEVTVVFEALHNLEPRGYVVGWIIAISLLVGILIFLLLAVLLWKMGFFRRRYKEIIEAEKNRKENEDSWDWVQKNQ
T1 sequence (P05556 21-798 limits assumed, chain 2 of 2): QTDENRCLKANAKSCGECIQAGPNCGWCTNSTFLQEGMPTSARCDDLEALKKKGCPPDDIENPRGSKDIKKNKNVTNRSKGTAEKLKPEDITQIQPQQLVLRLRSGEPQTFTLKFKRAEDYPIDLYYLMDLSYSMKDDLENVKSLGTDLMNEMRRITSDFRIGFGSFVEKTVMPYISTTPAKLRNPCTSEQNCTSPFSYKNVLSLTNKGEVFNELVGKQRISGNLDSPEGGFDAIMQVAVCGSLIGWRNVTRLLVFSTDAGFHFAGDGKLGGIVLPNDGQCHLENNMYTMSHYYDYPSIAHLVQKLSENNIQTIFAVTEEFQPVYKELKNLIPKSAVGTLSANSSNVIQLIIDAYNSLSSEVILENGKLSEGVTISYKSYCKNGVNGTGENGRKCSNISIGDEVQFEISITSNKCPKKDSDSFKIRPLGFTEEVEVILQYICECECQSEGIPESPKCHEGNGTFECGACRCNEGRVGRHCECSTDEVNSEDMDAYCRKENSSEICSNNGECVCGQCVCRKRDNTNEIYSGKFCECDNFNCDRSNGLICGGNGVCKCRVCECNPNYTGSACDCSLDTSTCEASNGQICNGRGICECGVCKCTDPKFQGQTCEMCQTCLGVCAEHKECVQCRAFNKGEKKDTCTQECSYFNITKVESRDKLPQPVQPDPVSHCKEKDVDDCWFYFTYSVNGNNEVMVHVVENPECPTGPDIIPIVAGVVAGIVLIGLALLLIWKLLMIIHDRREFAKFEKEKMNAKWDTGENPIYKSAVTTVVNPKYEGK

B1: mouse Y9A2 antibody (antibody, V domains shown)
VH: QVQLQQSGAELANPGASVKMSCKASGYTLTTYWMHWVKQRPGQGLEWIGYINPSSGYTEYNQKFKDKATLTADKSSSTAYMQLTSLTSEDSAVYYCAIYGDYGDFYFDYWGQGTTLTVSS
VL: SIVMTQTPKFLLVSAGDRVTMTCKASQSVNTDVAWFQQKPGQSPKLLIYFASNHYTGVPDRFTGSGYGTDFTFTISTVQAEDLAIYFCRQDYSSPFTFGGGTKLEIKR
In the case of B1, the “IC50 (µg/mL), cell adhesion inhibition test, SW480/hα9 cells on nOPN-RAA” value in [1] turned out to be 0.049 µg/mL. In experiment [2], the “specific activity (IC50 relative to mouse Y9A2 = 1), cell adhesion inhibition test on nOPN-RAA” value was 1 ratio of IC50 to mouse Y9A2. In experiment [3], the “specific activity (IC50 relative to mouse Y9A2 = 1), cell adhesion inhibition test on human Tenascin C-RAA” value is 1 ratio of IC50 to mouse Y9A2 and the “specific activity (IC50 relative to mouse Y9A2 = 1), cell adhesion inhibition test on human VCAM-1” value is 1 ratio of IC50 to mouse Y9A2. Besides, in experiment [4], the “IC50 (µg/mL), cell adhesion inhibition test, SW480/hα9 cells on nOPN-RAA; value in parentheses, measured simultaneously with RY9A2v5(AL)01” value stood at 0.052 µg/mL; the “IC50 (µg/mL), cell adhesion inhibition test, SW480/hα9 cells on nOPN-RAA; value in parentheses, measured simultaneously with RY9A2v5(AW)01” value worked out at 0.037 µg/mL; the “IC50 (µg/mL), cell adhesion inhibition test, SW480/hα9 cells on nOPN-RAA; value in parentheses, measured simultaneously with RY9A2v5(SW)01” value turned out to be 0.052 µg/mL; the “IC50 (µg/mL), cell adhesion inhibition test, SW480/hα9 cells on nOPN-RAA; value in parentheses, measured simultaneously with RY9A2v5(WE)01” value worked out at 0.052 µg/mL. For the same molecule, in [5], the “average cell adhesion inhibitory activity IC50, SW480/hα9 cells on human Tenascin C-RAA” value turned out to be 0.041 µg/mL; the “average cell adhesion inhibitory activity IC50, SW480/hα9 cells on human VCAM-1/Ig” value was found to be 0.077 µg/mL; the “average of IC50 values, cell adhesion inhibition test, SW480/hα9 cells on nOPN-RAA” value turned out to be 0.039 µg/mL. Moreover, in experiment [6], the “IC50 (µg/mL), cell adhesion inhibition test, SW480/hα9 cells on nOPN-RAA” value amounted to 0.07 µg/mL. Besides, in experiment [7], the “inhibitory rate (%) of migration of SW480/hα9 cell against nOPN-RAA, antibody at 5 µg/mL” value (“inhibitory rate (%)” below) stood at 28%. Besides, the “IC50 (µg/mL), cell adhesion inhibition test, SW480/hα9 cells on nOPN-RAA” value in experiment [8] amounted to 0.025 µg/mL. Further, the “IC50 (µg/mL), cell adhesion inhibition test, SW480/hα9 cells on nOPN-RAA” value in experiment [9] is 0.039 µg/mL.

B2: chimeric Y9A2 antibody (antibody, V domains shown)
VH: B1 VH
VL: B1 VL
For B2, in experiment [9], the “IC50 (µg/mL), cell adhesion inhibition test, SW480/hα9 cells on nOPN-RAA” value worked out at 0.038 µg/mL.

B3: RY9A2v501 antibody (antibody, V domains shown)
VH: QVQLVQSGAEVKKPGSSVKMSCKASGYTLTTYWMHWVKQRPGQGLEWIGYINPSSGYTEYNQKFKDRVTITADKSTSTAYMELSSLRSEDTAVYYCAIYGDYGDFYFDYWGQGTTVTVSS
VL: DIQMTQSPSSLSASVGDRVTITCKASQSVNTDVAWYQQKPGKAPKLLIYFASNHYTGVPSRFSGSGSGTDFTFTISSLQPEDIATYYCRQDYSSPFTFGGGTKVEIKR
For the molecule B3, the “IC50 (µg/mL), cell adhesion inhibition test, SW480/hα9 cells on nOPN-RAA” value in [6] turned out to be 0.054 µg/mL.

B4: RY9A2v5(AL)01 antibody (antibody, V domains shown)
VH: B3 VH with D104A, F105L
VL: B3 VL
Turning to B4, the “IC50 (µg/mL), cell adhesion inhibition test, SW480/hα9 cells on nOPN-RAA” value in experiment [4] worked out at 0.032 µg/mL.

B5: RY9A2v11(M34L)012 antibody (antibody, human IgG1, kappa, V domains shown)
VH: B3 VH with M34L, K65Q, D66G
VL: B3 VL with K24R
Regarding B5, the “specific activity (IC50 relative to mouse Y9A2 = 1), cell adhesion inhibition test on nOPN-RAA” value in [2] is 0.23 ratio of IC50 to mouse Y9A2. In addition, in [3], the “specific activity (IC50 relative to mouse Y9A2 = 1), cell adhesion inhibition test on human Tenascin C-RAA” value is 0.35 ratio of IC50 to mouse Y9A2 and the “specific activity (IC50 relative to mouse Y9A2 = 1), cell adhesion inhibition test on human VCAM-1” value was 0.44 ratio of IC50 to mouse Y9A2. In addition, the “inhibitory rate (%)” value in [7] was determined as 84%.

B6: RY9A2v5(WE)01 antibody (antibody, V domains shown)
VH: B3 VH with D104W, F105E
VL: B3 VL
On to B6, for which the “IC50 (µg/mL), cell adhesion inhibition test, SW480/hα9 cells on nOPN-RAA” value in [4] was 0.022 µg/mL.

B7: RY9A2v5(SW)01 antibody (antibody, V domains shown)
VH: B3 VH with D104S, F105W
VL: B3 VL
For B7, the “IC50 (µg/mL), cell adhesion inhibition test, SW480/hα9 cells on nOPN-RAA” value in experiment [4] was 0.035 µg/mL.

B8: RY9A2v5(AW)01 antibody (antibody, V domains shown)
VH: B3 VH with D104A, F105W
VL: B3 VL
As for B8, the “IC50 (µg/mL), cell adhesion inhibition test, SW480/hα9 cells on nOPN-RAA” value in [4] worked out at 0.015 µg/mL.

B9: RY9A2v801 antibody (antibody, V domains shown)
VH: B3 VH with M20V, K38R, R40A, I48M
VL: B3 VL
With B9, the “IC50 (µg/mL), cell adhesion inhibition test, SW480/hα9 cells on nOPN-RAA” value in experiment [6] came out at 0.058 µg/mL.

B10: RY9A2v5(M34I)01 antibody (antibody, V domains shown)
VH: B3 VH with M34I
VL: B3 VL
For the molecule B10, the “IC50 (µg/mL), cell adhesion inhibition test, SW480/hα9 cells on nOPN-RAA” value in experiment [1] amounted to 0.024 µg/mL.

B11: RY9A2v12(M34L)012 antibody (antibody, human IgG1, kappa, V domains shown)
VH: B3 VH with M20V, M34L, K38R, R40A, I48M, K65Q, D66G
VL: B3 VL with K24R
Turning to B11, the “specific activity (IC50 relative to mouse Y9A2 = 1), cell adhesion inhibition test on nOPN-RAA” value in experiment [2] was 0.23 ratio of IC50 to mouse Y9A2. Besides, in [3], the “specific activity (IC50 relative to mouse Y9A2 = 1), cell adhesion inhibition test on human Tenascin C-RAA” value is 0.26 ratio of IC50 to mouse Y9A2 and the “specific activity (IC50 relative to mouse Y9A2 = 1), cell adhesion inhibition test on human VCAM-1” value was 0.95 ratio of IC50 to mouse Y9A2. For the same molecule, the “inhibitory rate (%)” value in experiment [7] came to 86%.

B12: RY9A2v11012 antibody (antibody, V domains shown)
VH: B3 VH with K65Q, D66G
VL: B3 VL with K24R
For the molecule B12, in experiment [8], the “IC50 (µg/mL), cell adhesion inhibition test, SW480/hα9 cells on nOPN-RAA” value was found to be 0.008 µg/mL.

B13: RY9A2v5(M34L)01 antibody (antibody, V domains shown)
VH: B3 VH with M34L
VL: B3 VL
In the case of B13, the “IC50 (µg/mL), cell adhesion inhibition test, SW480/hα9 cells on nOPN-RAA” value in experiment [1] is 0.021 µg/mL.

B14: RY9A2v11011 antibody (antibody, V domains shown)
VH: B3 VH with K65Q, D66G
VL: B3 VL with K24Q
On to B14, for which, in experiment [8], the “IC50 (µg/mL), cell adhesion inhibition test, SW480/hα9 cells on nOPN-RAA” value came out at 0.012 µg/mL.

B15: RY9A2v5(IAW)01 antibody (antibody, human IgG1, kappa, V domains shown)
VH: B3 VH with M34I, D104A, F105W
VL: B3 VL
On to B15, for which the “specific activity (IC50 relative to mouse Y9A2 = 1), cell adhesion inhibition test on nOPN-RAA” value in [2] is 0.29 ratio of IC50 to mouse Y9A2. Further, in experiment [3], the “specific activity (IC50 relative to mouse Y9A2 = 1), cell adhesion inhibition test on human Tenascin C-RAA” value is 0.44 ratio of IC50 to mouse Y9A2 and the “specific activity (IC50 relative to mouse Y9A2 = 1), cell adhesion inhibition test on human VCAM-1” value was 1 ratio of IC50 to mouse Y9A2. Besides, the “inhibitory rate (%)” value in experiment [7] is 109%.
